From publication PMC8282340 (2021)
Like-named read-outs stand apart in the source and are kept apart here.

B1: fluorescent BID peptide (peptide)
chain: QEDIIRNIARHLAQVGDSMDR
HELM: PEPTIDE1{[O=C1OC2(c3ccc(O)cc3Oc3cc(O)ccc32)c2ccc(C(=O)[*:2])cc21].[O=C(CCCCCN[*:1])[*:2]].Q.E.D.I.I.R.N.I.A.R.H.L.A.Q.V.G.D.S.M.D.R.[am]}$$$$V2.0
SMILES: CC[C@H](C)[C@H](NC(=O)[C@H](CC(N)=O)NC(=O)[C@H](CCCNC(=N)N)NC(=O)[C@@H](NC(=O)[C@@H](NC(=O)[C@H](CC(=O)O)NC(=O)[C@H](CCC(=O)O)NC(=O)[C@H](CCC(N)=O)NC(=O)CCCCCNC(=O)c1ccc2c(c1)C(=O)OC21c2ccc(O)cc2Oc2cc(O)ccc21)[C@@H](C)CC)[C@@H](C)CC)C(=O)N[C@@H](C)C(=O)N[C@@H](CCCNC(=N)N)C(=O)N[C@@H](Cc1c[nH]cn1)C(=O)N[C@@H](CC(C)C)C(=O)N[C@@H](C)C(=O)N[C@@H](CCC(N)=O)C(=O)N[C@H](C(=O)NCC(=O)N[C@@H](CC(=O)O)C(=O)N[C@@H](CO)C(=O)N[C@@H](CCSC)C(=O)N[C@@H](CC(=O)O)C(=O)N[C@@H](CCCNC(=N)N)C(N)=O)C(C)C
B2: fluorescent NOXA peptide (peptide)
chain: AELEVECATQLRRFGDKLNFRQKLL
HELM: PEPTIDE1{[O=C1OC2(c3ccc(O)cc3Oc3cc(O)ccc32)c2ccc(C(=O)[*:2])cc21].[O=C(CCCCCN[*:1])[*:2]].A.E.L.E.V.E.C.A.T.Q.L.R.R.F.G.D.K.L.N.F.R.Q.K.L.L.[am]}$$$$V2.0
SMILES: CC(C)C[C@H](NC(=O)[C@H](CC(C)C)NC(=O)[C@H](CCCCN)NC(=O)[C@H](CCC(N)=O)NC(=O)[C@H](CCCNC(=N)N)NC(=O)[C@H](Cc1ccccc1)NC(=O)[C@H](CC(N)=O)NC(=O)[C@H](CC(C)C)NC(=O)[C@H](CCCCN)NC(=O)[C@H](CC(=O)O)NC(=O)CNC(=O)[C@H](Cc1ccccc1)NC(=O)[C@H](CCCNC(=N)N)NC(=O)[C@H](CCCNC(=N)N)NC(=O)[C@H](CC(C)C)NC(=O)[C@H](CCC(N)=O)NC(=O)[C@@H](NC(=O)[C@H](C)NC(=O)[C@H](CS)NC(=O)[C@H](CCC(=O)O)NC(=O)[C@@H](NC(=O)[C@H](CCC(=O)O)NC(=O)[C@H](CC(C)C)NC(=O)[C@H](CCC(=O)O)NC(=O)[C@H](C)NC(=O)CCCCCNC(=O)c1ccc2c(c1)C(=O)OC21c2ccc(O)cc2Oc2cc(O)ccc21)C(C)C)[C@@H](C)O)C(N)=O

Columns and labels:
Test in all cases: FP
B3-1 [1] = target: B3-1
B2-1 [2] = target: B2-1
B4-2 [3] = target: B4-2
B1-3 [4] = target: B1-3
[5] = target: human BCL-2 fused to the N-terminal half of T7 RNAP (human)
GST only = GST only (Schistosoma japonicum)
L4-3 [6] = target: L4-3
hsMCL-1 variant L1-1 [7] = target: T1, hsMCL-1 variant L1-1 (human, UniProt Q07820)
L3-1 [8] = target: L3-1
L3-3 [9] = target: L3-3
L4-3 [10] = target: L4-3; remark: listed apart in the source
hsMCL-1 variant L1-1 [11] = target: T1, hsMCL-1 variant L1-1; remark: listed apart in the source
L3-1 [12] = target: L3-1; remark: listed apart in the source
L3-3 [13] = target: L3-3; remark: listed apart in the source
B3-1 [14] = target: B3-1; remark: listed apart in the source
B2-1 [15] = target: B2-1; remark: listed apart in the source
B4-2 [16] = target: B4-2; remark: listed apart in the source
B1-3 [17] = target: B1-3; remark: listed apart in the source

human BCL-2 fused to the N-terminal half of T7 RNAP (human), sequence (chain, as listed by the source): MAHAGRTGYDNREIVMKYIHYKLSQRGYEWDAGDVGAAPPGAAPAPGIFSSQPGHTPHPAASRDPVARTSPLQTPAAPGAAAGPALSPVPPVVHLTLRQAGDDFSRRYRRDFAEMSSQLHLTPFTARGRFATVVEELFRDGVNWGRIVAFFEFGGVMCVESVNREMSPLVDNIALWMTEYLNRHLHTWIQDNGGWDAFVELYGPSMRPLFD

Row | Binder | Kd (B3-1 [1]) [nM] | Kd (B2-1 [2]) [nM] | Kd (B4-2 [3]) [nM] | Kd (B1-3 [4]) [nM] | Kd [5] [nM] | Kd (GST only) [nM] | Kd (L4-3 [6]) [nM] | Kd (hsMCL-1 variant L1-1 [7]) [nM] | Kd (L3-1 [8]) [nM] | Kd (L3-3 [9]) [nM] | Kd (L4-3 [10]) [nM] | Kd (hsMCL-1 variant L1-1 [11]) [nM] | Kd (L3-1 [12]) [nM] | Kd (L3-3 [13]) [nM] | Kd (B3-1 [14]) [nM] | Kd (B2-1 [15]) [nM] | Kd (B4-2 [16]) [nM] | Kd (B1-3 [17]) [nM]
1 | B1 | 33.4 | 43.3 | 5.16 | 7.21 | 87.6 | > 1000 | 18.7 | 5.38 | 25.3 | 9.29 |  |  |  |  |  |  |  | 
2 | B2 |  |  |  |  | 948 | > 1000 |  |  |  |  | > 1000 | 489 | 949 | > 1000 | 53.4 | 340 | 186 | 137
